Source: patent US20250287954A1, “METHOD AND COMPOSITION OF SYNERGISTIC INSECTICIDAL MIXTURES” (priority 2022, published 2025)

Test system: Cabbage Loopers
Experiment: Cabbage looper diet overlay bioassay (mortality at 4 days after treatment)
Assay type: in vivo
Description: Insecticidal bioassay: Activity against Cabbage Loopers was tested on Diet Overlay Bioassays. The appropriate artificial insect diet was dispensed into each well of a standard 96 well plate and allowed to dry. Once the diet solidified, 100 μL of the treatment was pipetted into the appropriate number of wells and allowed to dry. A single 1st instar larva was delivered into each well of a 96 well plate. Mortality was scored at 4 days after treatment.
Efficacy is expressed as percentage mortality at 4 days post treatment. Results (in duplicates) in % mortality are shown in above Table/chart.
FIG. 6 a plot of an insecticidal bioassay results for various purified compound with and without Sct1. Previous studies have shown that the insecticidal activity present in MBI-203 whole cell broth is mainly attributed to the synergy between secondary metabolites (chromamide analogues) and protein (Sct1). However, for these studies were carried out using mixed chromamides (a mixture of four analogues) and Sct1. With an objective to determine which chromamide analogue is critical for the observed synergy, these individual compounds were purified from MBI-203 WCB, and tested as mixture and individual compounds using the chewing bioassay. All compounds were tested at 3% rate based on the concentration of each present in the MBI-203 WCB. “Chroma mix” contained the chromamides MW 860, MW 874A, MW 874B, and MW 876.
Determination of LC50 value for MW 860 & Sct1. Based on the results from the above testing of purified compounds with & without Sct1, the LC50 for the MW 860, Chromamides MIX and Sct1 was determined. The individual pure compound and their mix were combined with Sct1 and submitted for determining the LC50 value.
FIG. 7 a plot of the effect of variation of concentration of MW 860 & Sct1 on insecticidal activity. Dose dependent study for MW 860 & Sct1 as mixture. To determine the minimum range of concentration of both MW 860 and Sct1 needed for good insecticidal activity, different ratios of both compounds were prepared and submitted for insecticidal bioassay.

In the case of O=C1NC(c2c[nH]c3ccc(O)cc23)=C/C1=C1\C(=O)Nc2ccccc21 [violacein], the “% Mortality (Cabbage Looper Assay) with sct1 (average of 4 bioassays)” value (in vivo) is reported as 3.269%.

chromamide A [MW 860] showed a mortality (in combination with Sct1, 3% dose, Cabbage looper (CL) bioassay, two subsequent testings) of 92%.

B1: sct1: Scott protein, ~20 kDa, extracellular secreted hypothetical protein of MBI-203, SEQ ID NO: 1 (protein, listed as Chromobacterium subtsugae)
chain: MSLTTDFLENPQAFMRSQAILIPAQVPPGNGKYQFAAQGAHAAVLQSTAASPNIPGFYAHPVANNINLFVLPTQQPARYYMFTDGMNGCQFLAYGPDRQHITVEHNNFIGDPTRYAARLAEVVALKPAYLLHISPSGVNNIPAGQYNSQQGVNIVGEYGQANGWRFWVRDRVDQNQGTVYGPL
With B1 the “insecticidal activity when tested individually” value (tested individually, 3% rate based on concentration in MBI-203 WCB (FIG. 6)) was “did not show any significant activity”, the “% Mortality (Cabbage Looper Assay) with sct1 (average of 4 bioassays)” value (with sct1, 4 days post treatment, compounds at 2% rate based on concentration in MBI-203 WCB, * samples neat (D30 1%, CSM2 2%)) was 1.087% and the “% Mortality (Cabbage Looper Assay) without sct1 (average of 3 bioassays)” value (without sct1, 4 days post treatment, compounds at 2% rate based on concentration in MBI-203 WCB, * samples neat (D30 1%, CSM2 2%)) was 1.087%.
